Where a chain is given by its changes, count along the chain named.
Legend:
[1] = biological target: H1 HA (strain not stated) (influenza A virus H1); assay: HA binding EC50; column head not printed: H1 HA and pM inferred
polyclonal human IgG = assay: BLI (Octet) polyreactivity

B1: FX-76-1-m3 (antibody, V domains shown)
VH: QVQLLETGGGLVKPGQSLKLSCAASGFTFTSFAMHWVRQPPGKGLEWVAVVSYDGNYKYYADSVQGRFTISRDNSKNTLYLQMNSLRAEDTAVYYCAKDSRRRSLLYFEWLSQGYFNPWGQGTTLTVSS
VL: DIQMTQSPSSLSASVGDRVTITCRSSQSITFDYKNYLAWYQQKPGKAPKLLIYWGSYLESGVPSRFSGSGSGTDFTLTISSLQPEDFATYYCQQHYRTPPSFGQGTKVEIK
EC50 [1]: 3.8 pM

B2: FX-5-6-m3 (antibody, V domains shown)
VH: QVQLVESGGGVVQPGRSLRLSCAASGFTFSTYAMHWVRQAPGKGLEWVCVISYDANYKYYADSVKGRFTCSRDNSKNTLYLQMNSLRAEDTAVYYCARDSRLRSLLYFEWLSQGYFDYWGQGTLVTVSS
VL: EIVMTQSPATLSVSPGERATLSCRSSQSITFDYKNYLAWYQQKPGQAPRLLIYWGSTRATGIPARFSGSGSGTEFTLTISSLQSEDFAVYYCQQHYRTPPSFGQGTKVEIK
poly reactivity octet max binding response (nm) (polyclonal human IgG): 1.13 nm

B3: FX-6-2-m3 (antibody, V domains shown)
VH: B2 VH with S30D, C49A, C70I
VL: B1 VL with Y57S, E59Q
poly reactivity octet max binding response (nm) (polyclonal human IgG): 0.798 nm

B4: FX-7-6-m3 (antibody, V domains shown)
VH: EVQLLESGGGLVQPGGSLRLSCAASGFTFSSYAMHWVRQAPGKGLEWVSVISYDANYKYYADSVKGRFTISRDNSKNTLYLQMNSLRAEDTAVYYCAKDSQLRSLLYFEWLSQGYFDYWGQGTTLTVSS
VL: B2 VL
poly reactivity octet max binding response (nm) (polyclonal human IgG): 0.703 nm

B5: FX-10-2-m3 (antibody, V domains shown)
VH: QVQLVQSGAEVKKPGSSVKVSCKASGFTFSTYAIHWVRQAPGQGLEWMGVISYDANYKYYAQKFQGRVTITRDNSKSTAYMELSSLRSEDTAVYYCARDSRLRSLLYFEWLSQGYFDYWGQGTTLTVSS
VL: B1 VL with Y57S, E59Q
poly reactivity octet max binding response (nm) (polyclonal human IgG): 0.681 nm

B6: FX-10-6-m3 (antibody, V domains shown)
VH: B5 VH
VL: B2 VL
poly reactivity octet max binding response (nm) (polyclonal human IgG): 0.862 nm

B7: FX-12-2-m3 (antibody, V domains shown)
VH: B5 VH with S16A, H35N, P41T, I70M, N74T, K76I, R101Q
VL: B1 VL with Y57S, E59Q
poly reactivity octet max binding response (nm) (polyclonal human IgG): 0.391 nm

B8: FX-3-2-m3 (antibody, V domains shown)
VH: B2 VH with C49A, C70I, R98K, R101Q
VL: B1 VL with Y57S, E59Q
poly reactivity octet max binding response (nm) (polyclonal human IgG): 0.521 nm

B9: FX-3-3-m3 (antibody, V domains shown)
VH: B2 VH with C49A, C70I, R98K, R101Q
VL: B1 VL with W54A, G55A, Y57S, E59Q
poly reactivity octet max binding response (nm) (polyclonal human IgG): 0.485 nm

B10: FX-3-6-m3 (antibody, V domains shown)
VH: B2 VH with C49A, C70I, R98K, R101Q
VL: B2 VL
poly reactivity octet max binding response (nm) (polyclonal human IgG): 0.774 nm

B11: FX-4-2-m3 (antibody, V domains shown)
VH: B2 VH with T28D, C49A, C70I
VL: B1 VL with Y57S, E59Q
poly reactivity octet max binding response (nm) (polyclonal human IgG): 0.758 nm

B12: FX-5-2-m3 (antibody, V domains shown)
VH: B2 VH
VL: B1 VL with Y57S, E59Q
poly reactivity octet max binding response (nm) (polyclonal human IgG): 0.992 nm

From patent US20230257449A1
